# Target: T1, MER (Homo sapiens, UniProt Q12866)
# T1 sequence (Q12866 21-999): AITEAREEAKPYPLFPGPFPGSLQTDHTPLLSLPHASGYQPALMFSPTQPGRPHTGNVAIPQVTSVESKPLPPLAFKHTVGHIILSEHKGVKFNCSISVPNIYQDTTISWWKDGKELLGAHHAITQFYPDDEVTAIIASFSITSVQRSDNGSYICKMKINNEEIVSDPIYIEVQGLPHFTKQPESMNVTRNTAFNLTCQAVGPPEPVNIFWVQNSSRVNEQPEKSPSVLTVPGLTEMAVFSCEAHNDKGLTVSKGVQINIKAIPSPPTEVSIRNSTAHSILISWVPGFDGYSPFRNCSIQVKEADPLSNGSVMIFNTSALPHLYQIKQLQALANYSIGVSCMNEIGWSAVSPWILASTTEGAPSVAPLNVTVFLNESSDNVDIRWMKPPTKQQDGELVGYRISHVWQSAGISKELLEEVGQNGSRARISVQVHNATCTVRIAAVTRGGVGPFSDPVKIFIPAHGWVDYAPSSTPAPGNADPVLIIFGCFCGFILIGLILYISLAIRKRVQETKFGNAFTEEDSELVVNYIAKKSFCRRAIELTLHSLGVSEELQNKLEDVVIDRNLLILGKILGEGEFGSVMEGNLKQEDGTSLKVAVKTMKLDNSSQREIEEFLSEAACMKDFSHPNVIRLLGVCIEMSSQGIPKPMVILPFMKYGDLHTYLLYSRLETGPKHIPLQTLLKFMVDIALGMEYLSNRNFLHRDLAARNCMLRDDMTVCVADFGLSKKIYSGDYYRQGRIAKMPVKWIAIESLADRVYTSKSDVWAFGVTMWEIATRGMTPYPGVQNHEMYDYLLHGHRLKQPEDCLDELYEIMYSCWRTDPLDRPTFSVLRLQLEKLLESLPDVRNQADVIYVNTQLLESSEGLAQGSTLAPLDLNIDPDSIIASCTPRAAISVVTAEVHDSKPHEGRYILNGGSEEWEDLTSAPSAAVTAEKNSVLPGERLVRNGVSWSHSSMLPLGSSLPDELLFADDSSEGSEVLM
# Assay: TR-FRET kinase assay, MER
# Format: biochemical
# Conditions: Kinase Concentration 0.25 nM; 50 nM ULight-labeled substrate, 200 micromolar ATP, 2 hours
# Description: TR-FRET kinase assays are performed under standardized conditions: various individual kinases are incubated with 50 nM of kinase substrate BRB1 labeled with the TR-FRET acceptor dye ULight (PerkinElmer) and 200 micromolar ATP in 10 μL of kinase assay buffer (50 mM HEPES pH7.5, 10 mM MgCl2, 3 mM MnCl2, 1 mM EGTA, 2 mM DTT and 0.01% Tween-20) for 2 hours at room temperature. Reactions are stopped with EDTA, and anti-phospho-tyrosine antibodies (clone PT66) labeled with the TR-FRET europium chelate donor dye are added to a final concentration of 2 nM in a final volume of 20 μL. The TR-FRET signal emitted at 665 nm is read one hour after the addition of antibodies using a TR-FRET plate reader such as the Envision® Multilabel Plate reader (PerkinElmer). The emitted signal at 665 nm is proportional to the extent of peptide phosphorylation, Control reactions indicative of background are performed excluding ATP from the reaction.
# Assay conditions are identical to those used described for FIG. 1.
sequence,measurement,value
C AYE AYE AYE K EYA EYA EYA K AYA EYE R (CAYEAYEAYEKEYAEYAEYAKAYAEYER; tyrosine kinase substrate peptide) [BRB1],Signal to Noise ratio with BRB1 Peptide,12.9

# Reference: patent US8242083B2, “Kinase substrates” (PerkinElmer Health Sciences, Inc., priority 2008, dated 2012)
